Results on two molecules are retold here after patent publication US20060051363A1, “Protein inducing cell death of helicobacter pylori” (JAPAN SCIENCE AND TECHNOLOGY AGENCY, priority 2002, published 2006).

Series [1] has as its target T1, subunit 2 of the apoptosis-inducing protein from Helicobacter pylori (amino acids 380-567 of the protein … (Helicobacter pylori strain 26695)).
T1 construct: Purified from the membrane fraction of H. pylori strain 26695; this follows from the lengths; also called about 22 kDa band
T1 chain: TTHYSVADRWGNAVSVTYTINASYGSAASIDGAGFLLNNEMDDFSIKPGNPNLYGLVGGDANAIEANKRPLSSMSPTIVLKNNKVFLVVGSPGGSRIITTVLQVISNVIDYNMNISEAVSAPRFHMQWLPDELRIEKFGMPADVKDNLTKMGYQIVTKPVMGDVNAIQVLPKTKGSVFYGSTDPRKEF
The experiment in a line: native PAGE under acid condition (single band), then 2D SDS-PAGE (two bands, about 40 kDa and 22 kDa).

Series [2] relates to human gastric adenocarcinoma cell line AGS. Briefly: cytotoxic effect assayed using WST-1 kit in AGS cells. The note with it: FIG. 7. The class given is cell-based. On the procedure: In this example, the apoptosis-inducing activity was measured as the cytotoxic activity in human gastric adenocarcinoma cell line AGS (ATCC CRL 1739) using Quick Cell Proliferation Assay Kit (Cat.BV-K301-10) (BioVision). The cell viability (surviving cell), from which an apoptosis-inducing activity is calculated, is based on the activity of intracellular mitochondrial dehydrogenase activity as a marker enzyme and is measured by the absorbance at 450 nm after 1 hr incubation at 37° C. with the substrate of the enzyme. The absorbance indicates the cell viability. The more cytotoxic, the less the absorbance is according to the mesurement.
(§1) In this example, the apoptosis-inducing activity of the protein purified in example 1 was examined in human gastric adenocarcinoma cell line AGS (ATCC CRL 1739), in human gastric carcinoma cell line KATO III (Human Science Research Resources Bank, Cat No. JCRB0611 (ATCC, HTB-103)) and in human uterine cervix cancer-derived HeLa cell (Human Science Research Resources Bank, Cat No. JCRB9004).
(§2) The cytotoxic effect was assayed using WST-1 kit (Roche Diagnotics).

The test system of series [3] is human gastric carcinoma cell line KATO III. Briefly: cytotoxic effect assayed using WST-1 kit in KATO III cells. Type of series: cell-based. The note with it: FIG. 8. How it is done: as §1, §2
Series [4] concerns human uterine cervix cancer-derived HeLa cell. Briefly: cytotoxic effect assayed using WST-1 kit in HeLa cells. The class given is cell-based. The settings on record: FIG. 7. On the procedure:
as §1, §2

The next series has as its system AGS cells. Briefly: induction of apoptosis in AGS cells (Hoechst 33342 nuclear staining, fluorescence microscopy). The settings on record: Hoechst 33342 staining, FIG. 9. Type of series: cell-based, human. An excerpt:
Also, the induction of apoptosis in AGS cells by the protein was examined: Trypsinized apoptotic and control cells were collected and stained with a fluorescent dye (Hoechst 33342), which stains cellular nuclei. Since the nuclei of apoptotic cells are highly condensed and fragmented, apoptotic cells are easily differentiated from control cells under fluorescence microscopy. Cells were put on a slide glass, the number of apoptotic cells and control cells were counted and the percentage of apoptotic cells in total cells was enumerated. At least total 500 cells were counted for each experiment.

B1: subunit 1 of the apoptosis-inducing protein from Helicobacter pylori (amino acids 27-379 of the protein encoded by the HP1118 gamma-glutamyl transferase gene) (enzyme)
chain: ASYPPIKNTKVGLALSSHPLASEIGQKVLEEGGNAIDAAVAIGFALAVVHPAAGNIGGGGFAVIHLANGENVALDFREKAPLKATKNMFLDKQGNVVPKLSEDGYLAAGVPGTVAGMEAMLKKYGTKKLSQLIDPAIKLAENGYAISQRQAETLKEARERFLKYSSSKKYFFKKGHLDYQEGDLFVQKDLAKTLNQIKTLGAKGFYQGQVAELIEKDMKKNGGIITKEDLASYNVKWRKPVVGSYRGYKIISMSPPSSGGTHLIQILNVMENADLSALGYGASKNIHIAAEAMRQAYADRSVYMGDADFVSVPVDKLINKAYAKKIFDTIQPDTVTPSSQIKPGMGQLHEGSN
notes: Purified from the membrane fraction of H. pylori strain 26695; this follows from the lengths; also called about 40 kDa band
As for B1, the binding result in series [1] is given as “binds”.

B2: protein purified in example 1: Helicobacter pylori protein complex of two subunits (SEQ ID NO: 1 and 2; about 40 kDa and 22 kDa) encoded by the HP1118 gene (protein)
chain 1: ASYPPIKNTKVGLALSSHPLASEIGQKVLEEGGNAIDAAVAIGFALAVVHPAAGNIGGGGFAVIHLANGENVALDFREKAPLKATKNMFLDKQGNVVPKLSEDGYLAAGVPGTVAGMEAMLKKYGTKKLSQLIDPAIKLAENGYAISQRQAETLKEARERFLKYSSSKKYFFKKGHLDYQEGDLFVQKDLAKTLNQIKTLGAKGFYQGQVAELIEKDMKKNGGIITKEDLASYNVKWRKPVVGSYRGYKIISMSPPSSGGTHLIQILNVMENADLSALGYGASKNIHIAAEAMRQAYADRSVYMGDADFVSVPVDKLINKAYAKKIFDTIQPDTVTPSSQIKPGMGQLHEGSN
chain 2: TTHYSVADRWGNAVSVTYTINASYGSAASIDGAGFLLNNEMDDFSIKPGNPNLYGLVGGDANAIEANKRPLSSMSPTIVLKNNKVFLVVGSPGGSRIITTVLQVISNVIDYNMNISEAVSAPRFHMQWLPDELRIEKFGMPADVKDNLTKMGYQIVTKPVMGDVNAIQVLPKTKGSVFYGSTDPRKEF
modifications: Helicobacter Pylori
notes: about 40 kDa and 22 kDa) encoded by the HP1118 gene
On to B2, for which the cytotoxic activity result in series [2], in series [3] and in series [4] was “has the cytotoxic activity” in each case. For the same molecule, in the series on AGS cells, the “induction of apoptosis (percentage of apoptotic cells in total cells)” value is listed as “mainly ascribed to apoptosis”.
